These results are taken from patent publication US20180282402A1 (ATYR PHARMA, published 2018).

In general, Kd refers to the equilibrium constant for the complex coming apart. The low end stands for tighter binding, the high end for weaker binding.

One assay addresses T1, Human HARS (human, UniProt P12081 1-509, limits assumed).
T1 construct: also called human HRS; human histidyl-tRNA synthetase
T1 sequence: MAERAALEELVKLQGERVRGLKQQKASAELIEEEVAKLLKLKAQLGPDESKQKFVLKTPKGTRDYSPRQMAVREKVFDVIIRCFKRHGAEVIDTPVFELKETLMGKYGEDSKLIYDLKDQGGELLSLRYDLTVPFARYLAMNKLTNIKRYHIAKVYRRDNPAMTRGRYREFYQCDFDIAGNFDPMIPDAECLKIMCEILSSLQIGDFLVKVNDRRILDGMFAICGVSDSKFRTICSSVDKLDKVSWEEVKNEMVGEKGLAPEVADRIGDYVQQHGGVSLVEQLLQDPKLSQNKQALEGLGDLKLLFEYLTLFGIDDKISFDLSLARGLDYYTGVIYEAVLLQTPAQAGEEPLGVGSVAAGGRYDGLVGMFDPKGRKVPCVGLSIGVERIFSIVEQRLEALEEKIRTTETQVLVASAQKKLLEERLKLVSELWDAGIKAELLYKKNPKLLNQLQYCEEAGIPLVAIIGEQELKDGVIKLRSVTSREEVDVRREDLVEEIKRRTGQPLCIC
In words: SPR (ProteOn); HRS protein immobilized, antibody as analyte.

The next assay has as its target T2, Mouse HARS (mouse, UniProt Q61035 1-509, limits assumed).
T2 construct: also called mouse HRS
T2 sequence: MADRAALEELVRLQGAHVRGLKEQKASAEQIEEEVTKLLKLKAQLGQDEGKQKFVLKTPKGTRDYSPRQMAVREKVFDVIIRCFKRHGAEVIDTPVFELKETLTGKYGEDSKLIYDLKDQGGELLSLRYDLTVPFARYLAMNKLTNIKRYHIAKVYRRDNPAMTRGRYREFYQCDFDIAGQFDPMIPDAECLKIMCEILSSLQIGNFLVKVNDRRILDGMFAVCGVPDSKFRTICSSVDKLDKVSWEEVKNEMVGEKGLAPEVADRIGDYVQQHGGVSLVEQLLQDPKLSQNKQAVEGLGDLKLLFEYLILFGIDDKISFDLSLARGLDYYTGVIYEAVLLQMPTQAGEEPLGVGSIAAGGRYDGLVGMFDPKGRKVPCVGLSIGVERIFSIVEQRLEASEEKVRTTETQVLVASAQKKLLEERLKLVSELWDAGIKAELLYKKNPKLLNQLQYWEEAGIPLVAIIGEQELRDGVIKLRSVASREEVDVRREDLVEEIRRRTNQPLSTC
The assay is described as above.

In assay [1] the target is T3, Fc-HRS(2-60) (human, UniProt P12081 2-60).
T3 construct: Fc at the N-terminus, HRS residues 2-60 (WHEP domain) at the C-terminus; in the imaging assay pre-complexed with anti-Fc-PE; also called HRS-Fc fusion protein construct; ATYR1923; not shown: human IgG Fc region
T3 sequence: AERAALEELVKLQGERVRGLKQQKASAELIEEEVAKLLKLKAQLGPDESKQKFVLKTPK
In words: flow cytometry blocking assay: 43.75 nM biotinylated Fc-HRS(2-60) complexed with 87.5 nM streptavidin-PE, added with titrated antibody to Expi293 cells stably expressing NRP2, the blocked partner [panel A]. In general terms: A flow cytometer gives signals particle by particle.

Assay [2] has as its target T3, Fc-HRS(2-60). In words: flow cytometry blocking assay: 43.75 nM biotinylated Fc-HRS(2-60) complexed with 87.5 nM streptavidin-PE, added with titrated antibody to Expi293 cells stably expressing NRP2, the blocked partner [panel B].
Assay [3] has as its target T4, NRP2-Fc (R&D Systems #2215-N2) (human, UniProt O60462 23-864, limits assumed).
T4 construct: Bought reagent used as NRP2 in the SPR experiments; also called human NRP2; Neuropilin 2; not shown: Fc
The assay can be described thus: SPR; column Binding to NRP2 observed by SPR.

Assay [4] concerns the target T5, NRP2a-GFP fusion protein on HEK293T cells (human, UniProt O60462 23-931).
T5 construct: Transiently expressed; cells fixed before staining; also called NRP2v2-GFP; cell-expressed NRP2a; not shown: GFP (Origene RG220706, NM_003872 ORF clone)
The assay can be described thus: competition assay, immunofluorescence microscopy on HEK293T cells expressing NRP2v2-GFP, GFP-bright gate; VEGF-C titrated, competitor 175 nM Fc-HRS(2-60)/anti-Fc-PE [panel A]. As for the experimental part:
HEK293T cells previously transfected with NRP2v2-GFP were passed the night before staining to 96 well Greiner Clear flat bottomed Microplates pre-coated with collagen coating solution. Supernatants were removed and cells were washed 1 time with binding buffer. Cells were then fixed with 50 μL of 3.7% methanol-free formaldehyde for 20 minutes at room temperature. Cells were washed 2× with binding buffer and then blocked with 100 μL of blocking buffer for 1 hour at room temperature. The cells were then washed one time with binding buffer and then incubated with 50 μL of staining complex overnight at 4 degrees Celsius. Cells were then washed 3 times with binding buffer, and then nuclei were counter stained with […] Hoechst diluted in DPBS for 10 minutes at room temperature. The Hoechst stain was replaced with 1×PBS and subsequently read on an IN Cell Analyzer 2200. 20× images were acquired and analyzed using In Cell Analyzer 1000 Workstation software. Segmentation of the cell mask was achieved using the GFP channel, and the average PE signal intensity was determined within this mask above a threshold intensity of 5000 (termed GFP Bright cells).

B1: KL31-467 (antibody, V domains shown)
VH: QVQLVQSGAEVKKPGASVKVSCKASGYTFTDYCIGWIRQAPGQGLEWMGDICPGDTYTNDNEKFKDRATMTADTSTSTAYMELSSLRSEDTAVYYCARGEEQLGLRNAMDYWGQGTLVTVSS
VL: DIVMTQSPDSLAVSLGERATINCQSQSVSTSTYNYMHWYQQKPGQPPKLLIKYASNLESGVPDRFSGSGSGTDFTLTISSLQAEDVATYYCQHSWEIPWTFGGGTKVEIK
notes: Humanized; IgG1m(zf) kappa
Regarding B1, the Kd in the assay with Human HARS was 0.21 nM; with Mouse HARS, 0.96 nM. Further, the “IC50 (read off the curve)” value with Fc-HRS(2-60) [1] was about 20 nM.

B2: KL31-478 (antibody, V domains shown)
VH: QVQLVQSGAEVKKPGASVKVSCKASGYTFTDYCIGWIRQAPGQGLEWMGDICPGDTYTNDNEKFKDRATMTADTSTSTAYMELSSLRSEDTAVYYCARGEEQLGLRNAMDYWGQGTLVTVSS
VL: EIVLTQSPATLSLSPGERATLSCQSQSVSTSTYNYMHWYQQKPGQAPRLLIKYASNLESGIPDRFSGSGSGTDFTLTISRLEPEDFATYYCGHSYEIPWTFGGGTKVEIK
notes: Humanized; IgG1m(zf) kappa
For the molecule B2, the Kd amounted to 0.076 nM with Human HARS and 0.614 nM with Mouse HARS. Besides, the “IC50 (read off the curve)” value in the assay with Fc-HRS(2-60) [2] was about 10 nM.

B3: KL31-356 (antibody, IgG4, V domains shown)
VH: QVQLVQSGAEVKKPGASVKVSCKASGYTFTDYCIGWIRQAPGQGLEWMGDICPGDTYTNDNEKFKDRATMTADTSTSTAYMELSSLRSEDTAVYYCARGEEQLGLRNAMDYWGQGTLVTVSS
VL: DIVMTQSPDSLAVSLGERATINCQSQSVSTSTYNYMHWYQQKPGQPPKLLIKYASNLESGVPDRFSGSGSGTDFTLTISSLQAEDVATYYCQHSWEIPWTFGGGTKVEIK
notes: Humanized; IgG4-2 kappa
Consider B3, for which the Kd with Human HARS was determined as 0.3 nM; with Mouse HARS it was 1.4 nM. The “IC50 (read off the curve)” value with Fc-HRS(2-60) [1] is about 20 nM.

B4: VEGF-A121 (ligand, human, UniProt P15692-9 27-147, looked up)
chain: APMAEGGGQNHHEVVKFMDVYQRSYCHPIETLVDIFQEYPDEIEYIFKPSCVPLMRCGGCCNDEGLECVPTEESNITMQIMRIKPHQGQHIGEMSFLQHNKCECRPKKDRARQEKCDKPRR
For the molecule B4, the binding result in assay [3] was “no binding”.

B5: AB04-439 (antibody, V domains shown)
VH: QVQLVESGGGLVKPGGSLRLSCAASGFTFSDYYMTWIRQAPGKGLEWVSYISGSFRYTNYADSVKGRFTISRDNAKNSLYLQMNSLRDEDTAVYFCARYVYQVVAIGDLWGQGTLVTVSS
VL: DIQMTQSPSSVSASVGDRVTITCRASQGISSWLAWYQQKPGRAPKLLIFAASSLQSGVPSRFSGSGSGTHFTLTISSLQPEDFATYYCQQAESFPYTFGQGTKLEIK
notes: Human; IgG1m(zf) kappa
For the molecule B5, the Kd came to 0.048 nM in the assay with Human HARS and 0.13 nM with Mouse HARS.

B6: AB13-288 (IgG1m(zf) kappa) (antibody, V domains shown)
VH: QVQLVESGGGLVKPGGSLRLSCAASGFTFSDYYMSWIRQAPGKGLEWVSYISDKSRYTKYTDKVRGRFTISRDNAKNSLYLQMNSLRAEDTAVYYCARYLYQVIAIADAWGQGTLVTVSS
VL: DIQMTQSPSSVSASVGDRVTITCRASQGISSWLAWFQQKPGKAPKLLIFVASNLESGVPSRFSGSGSGTDFTLTISSLQPEDFATYYCQQAESFPYTFGQGTKLEIK
notes: Human
For the molecule B6, the Kd with Human HARS and with Mouse HARS was under 0.001 nM throughout.

B7: AB04-168 (antibody, IgG4, V domains shown)
VH: QVQLVESGGGLVKPGGSLRLSCAASGFTFSDYYMTWIRQAPGKGLEWVSYISGSFRYTNYADKVKGRFTISRDNAKNSLYLQMNSLRDEDTAVYFCARYVYQVVAIGDLWGQGTLVTVSS
VL: DIQMTQSPSSVSASVGDRVTITCRASQGISSWLAWYQQKPGRAPKLLIFAASSLQSGVPSRFSGSGSGTHFTLTISSLQPEDFATYYCQQAESFPYTFGQGTKLEIK
notes: Human; IgG4-2 kappa
Regarding B7, the Kd with Human HARS is 0.015 nM; with Mouse HARS, 0.145 nM.

B8: AB13-288 (IgG4-2 kappa) (antibody, V domains shown)
VH: QVQLVESGGGLVKPGGSLRLSCAASGFTFSDYYMSWIRQAPGKGLEWVSYISDKSRYTKYTDKVRGRFTISRDNAKNSLYLQMNSLRAEDTAVYYCARYLYQVIAIADAWGQGTLVTVSS
VL: DIQMTQSPSSVSASVGDRVTITCRASQGISSWLAWFQQKPGKAPKLLIFVASNLESGVPSRFSGSGSGTDFTLTISSLQPEDFATYYCQQAESFPYTFGQGTKLEIK
notes: Human
In the case of B8, the Kd with Human HARS is under 0.001 nM; in the assay with Mouse HARS, 0.023 nM.

B9: AB13-112 (IgG1m(za) kappa) (antibody, V domains shown)
VH: QVQLVESGGGLVKPGGSLRLSCAASGFTFSDYYMSWIRQAPGKGLEWVSYISDKSRYTKYTDKVRGRFTISRDNAKNSLYLQMNSLRAEDTAVYYCARYLYQVIAIADAWGQGTLVTVSS
VL: DIQMTQSPSSVSASVGDRVTITCRASQGISSWLAWFQQKPGKAPKLLIFVASNLESGVPSRFSGSGSGTDFTLTISSLQPEDFATYYCQQAESFPYTFGQGTKLEIK
notes: Human
Turning to B9, the Kd with Human HARS and with Mouse HARS was under 0.001 nM throughout.

B10: AB13-112 (IgG4 kappa) (antibody, V domains shown)
VH: QVQLVESGGGLVKPGGSLRLSCAASGFTFSDYYMSWIRQAPGKGLEWVSYISDKSRYTKYTDKVRGRFTISRDNAKNSLYLQMNSLRAEDTAVYYCARYLYQVIAIADAWGQGTLVTVSS
VL: DIQMTQSPSSVSASVGDRVTITCRASQGISSWLAWFQQKPGKAPKLLIFVASNLESGVPSRFSGSGSGTDFTLTISSLQPEDFATYYCQQAESFPYTFGQGTKLEIK
notes: Human
Regarding B10, the Kd with Human HARS was under 0.001 nM; with Mouse HARS, 0.0025 nM.

B11: AB13-433 (antibody, V domains shown)
VH: QVQLVESGGGLVKPGGSLRLSCAASGFTFSDYYMSWIRQAPGKGLEWVSYISDSSTYTNYTDSVRGRFTISRDNAKNSLYLQMNSLRAEDTAVYYCARYLYQVIAVADSWGQGTLVTVSS
VL: DIQMTQSPSSVSASVGDRVTITCRASQGISSWLAWFQQKPGKAPKLLIYVASNLESGVPSRFSGSGSGTDFTLTISSLQPEDFATYYCQQANSFPYTFGQGTKLEIK
notes: Human; IgG1m(zf) kappa
Turning to B11, the Kd with Human HARS and with Mouse HARS was 0.21 nM throughout.

B12: VEGF-C (ligand, human, UniProt P49767 103-227, looked up)
chain: TEETIKFAAAHYNTEILKSIDNEWRKTQCMPREVCIDVGKEFGVATNTFFKPPCVSVYRCGGCCNSEGLQCMNTSTSYLSKTLFEITVPLSQGPKPVTISFANHTSCRCMSKLDVYRQVHSIIRR
notes: also called Recombinant Human VEGF-C Protein
Consider B12, for which the “IC50 (read off the curve)” value in assay [4] is about 2 nM.

B13: VEGF-A145 (ligand, human, UniProt P15692-6 27-171, looked up)
chain: APMAEGGGQNHHEVVKFMDVYQRSYCHPIETLVDIFQEYPDEIEYIFKPSCVPLMRCGGCCNDEGLECVPTEESNITMQIMRIKPHQGQHIGEMSFLQHNKCECRPKKDRARQEKKSVRGKGKGQKRKRKKSRYKSWSVCDKPRR
As to B13, the binding result in assay [3] is reported as “no binding”.
